Target: seed (assembled NM protein, preformed fibers used to seed fiber elongation in Example 10) (Saccharomyces cerevisiae) (UniProt P05453)
Experiment: seeded fiber elongation, sedimentation and wavelength shift assays, Lineweaver-Burk plot

Chain of seed (assembled NM protein, preformed fibers used to seed fiber elongation in Example 10) (Saccharomyces cerevisiae) (P05453 1-253): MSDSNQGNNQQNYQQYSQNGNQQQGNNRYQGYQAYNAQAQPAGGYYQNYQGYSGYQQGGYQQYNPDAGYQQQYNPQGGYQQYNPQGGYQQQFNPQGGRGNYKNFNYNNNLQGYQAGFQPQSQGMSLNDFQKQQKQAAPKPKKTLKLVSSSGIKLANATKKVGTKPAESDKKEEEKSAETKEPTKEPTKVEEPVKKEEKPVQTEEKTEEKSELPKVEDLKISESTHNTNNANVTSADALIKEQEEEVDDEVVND

Substance: NM^T158C-acrylodan (from UniProt P05453 1-253) (other; other documents disagree on this pair)
- Km: 0.12 µM
- Vmax (maximal rate of conformational conversion): 0.001 µmol/s
- kconf (rate constant of conformational conversion): 0.005 s⁻¹
- kconf/Km (conformational conversion efficiency): 42000 M⁻¹ s⁻¹
